Measurements: patent US11278600B2, “Human alpha-galactosidase variants” (Codexis, Inc., priority 2014, dated 2022)

B1: 346 (protein)
chain: LDNGLARTPTMGWLHWERFMCNLDCQEEPDSCISEKLFMEMAERMVSEGWKDAGYEYLCIDDCWMAPQRDSEGRLQADPQRFPHGIRQLANYVHSIGLKLGIYADVGNKTCAGFPGSFGYYDIDAQTFADWGVDLLKFDGCYCDSLENLADGYKHMSLALNRTGRSIVYSCEWPLYMWPFQKPNYTEIRQYCNHWRNFADIDDSWASIKSILDWTSRNQERIVDVAGPGGWNDPDMLVIGNFGLSWNQQVTQMALWAIMAAPLFMSNDLRHISPQAKALLQDKDVIAINQDPLGKQGYQLRKGDNFEVWERPLSGLAWAVAIINRQEIGGPRSYTIAVASLGKGVACNPGCFITQLLPVKRQLGFYNWSSRLKSHINPTGTVLLQLENTMQMSLKDLL
modifications: Synthetic Polypeptide sequence of Variant No. 346 of mature Human GLA
B2: 347 (protein)
chain: LDNGLARTPTMGWLHWERFMCNLDCQEEPDSCISEKLFMEMAERMVSEGWKDAGYEYLCIDDCWMAPQRDSEGRLQADPQRFPHGIRQLANYVHSIGLKLGIYADVGNKTCAGFPGSFGYYDIDAQTFADWGVDLLKFDGCYCDSLENLADGYKHMSLALNRTGRSIVYSCEWPLYMWPFQKPNYTEIRQYCNHWRNFADIDDSWASIKSILDWTSFNQERIVDVAGPGGWNDPDMLVIGNFGLSWNQQVTQMALWAIMAAPLFMSNDLRHISPQAKALLQDKDVIAINQDPLGKQGYQLRQGDNFEVWERPLSGLAWAVAIINRQEIGGPRSYTIPVASLGKGVACNPACFITQLLPVKRKLGFYNWSSRLKSHINPTGTVLLQLENTMQMSLKDLL
modifications: Synthetic Polypeptide sequence of Variant No. 347 of mature Human GLA
B3: 348 (protein)
chain: LDNGLARTPTMGWLHWERFMCNLDCQEEPDSCISEKLFMEMAERMVSEGWKDAGYEYLCIDDCWMAPQRDSEGRLQADPQRFPHGIRQLANYVHSKGLKFGIYADVGNKTCAGFPGSFGYYDIDAQTFADWGVDLLKFDGCYCDSLENLADGYKHMSLALNRTGRSIVYSCEWPLYMWPFQKPNYTEIRQYCNHWRNFADIDDSWASVKSILDWTSFNQEKIVDVAGPGGWNDPDMLVIGNFGLSWNQQVTQMALWAIMAAPLFMSNDLRHISPQAKALLQDKDVIAINQDPLGKQGYQLRQGDNFEVWERPLSGLAWAVAIINRQEIGGPRSYTIAVASLGGGVACNPACFITQLLPVKRKLGLYNWTSRLKSHINPTGTVLLQLENTMQMSLKDLL
modifications: Synthetic Polypeptide sequence of Variant No. 348 of mature Human GLA

Experiments:
Assay type in all cases: biochemical
[1] = HTP-analysis of supernatants pretreated with base (MUGal hydrolysis); details: challenge at pH 8.2; activity of the variant/activity of Rd3BB (SEQ ID NO: 13); yeast culture supernatant
Procedure, shortened: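 Fluorescence of released 4-MU (Ex 355 nm, Em 448 nm) after carbonate quench reports MUGal hydrolysis by GLA variants secreted from INVSc1 yeast. Before the acidic (pH 4.3-4.8) 30-180 min reaction at 37° C, supernatants had been pre-incubated at pH 7.0-9.7 for 1-18 h at 37° C.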

[2] = HTP-analysis of supernatants pretreated with acid (MUGal hydrolysis); details: challenge at pH 4.0; activity of the variant/activity of Rd3BB (SEQ ID NO: 13); yeast culture supernatant
Procedure, shortened: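 Fluorescence of MUGal hydrolysis (Ex. 355 nm, Em. 448 nm) is read after sodium carbonate quench. The enzyme source is INVSc1 yeast culture supernatant, first exposed to pH 3.3-4.3 McIlvaine buffer at 37° C. for 1-3 h, then reacted at pH 4.8 for 30-180 minutes.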

[3] = HTP-analysis of yeast culture supernatants, no challenge (MUGal hydrolysis); details: activity of the variant/activity of Rd3BB (SEQ ID NO: 13), yeast culture supernatant
Procedure, shortened: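 Activity read as 4-methylumbelliferyl α-D-galactopyranoside hydrolysis: fluorescence (355/448 nm) after sodium carbonate stop, following 30-180 min at 37° C with 2 mM MUGal stock at pH 4.6–4.8. Enzyme source is unchallenged culture supernatant of INVSc1 yeast expressing GLA variants, grown 66-84 h at 30° C.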

[4] = HTP-analysis of supernatants pretreated with bovine serum (MUGal hydrolysis); details: activity of the variant/activity of Rd3BB (SEQ ID NO: 13), yeast culture supernatant
Procedure, shortened: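 Yeast INVSc1 culture supernatants containing secreted GLA variants were mixed with bovine serum (20:80) and held 1 h at 37° C. Serum-treated samples then reacted with MUGal (4 mM stock) in citrate/McIlvaine buffer (pH 4.3/4.8) for 180 min at 37° C., were quenched with sodium carbonate, and read by fluorescence (Ex 355, Em 448 nm).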

| Molecule | Relative Activity of GLA Variants After Challenge at pH 8.2 [1] | Relative Activity of GLA Variants After Challenge at pH 4.0 [2] | Relative Activity of GLA Variants After No Challenge (NC) [3] | Relative Activity of GLA Variants After Challenge with Serum [4] |
| --- | --- | --- | --- | --- |
| B1 | ++ (++ = >1.5 to 2.5 relative activity over Rd3BB (SEQ ID NO: 13)) | + (+ = 0.5 to 1.5 relative activity over Rd3BB (SEQ ID NO: 13)) | + (+ = 0.5 to 1.5 relative activity over Rd3BB (SEQ ID NO: 13)) | + (+ = 0.5 to 1.5 relative activity over Rd3BB (SEQ ID NO: 13)) |
| B2 | − (− = <0.5 relative activity to Rd3BB (SEQ ID NO: 13)) | − (− = <0.5 relative activity to Rd3BB (SEQ ID NO: 13)) | − (− = <0.5 relative activity to Rd3BB (SEQ ID NO: 13)) | − (− = <0.5 relative activity to Rd3BB (SEQ ID NO: 13)) |
| B3 | + (+ = 0.5 to 1.5 relative activity over Rd3BB (SEQ ID NO: 13)) | + (+ = 0.5 to 1.5 relative activity over Rd3BB (SEQ ID NO: 13)) | + (+ = 0.5 to 1.5 relative activity over Rd3BB (SEQ ID NO: 13)) | + (+ = 0.5 to 1.5 relative activity over Rd3BB (SEQ ID NO: 13)) |
